Reference: patent CN111333724A (INST MILITARY MEDICINE ACADEMY MILITARY SCIENCES PLA, dated 2020)

Key:
His-SEB蛋白 [1] = target: T1, His-SEB蛋白 (Staphylococcus aureus, UniProt P01552 28-266)
T1 sequence: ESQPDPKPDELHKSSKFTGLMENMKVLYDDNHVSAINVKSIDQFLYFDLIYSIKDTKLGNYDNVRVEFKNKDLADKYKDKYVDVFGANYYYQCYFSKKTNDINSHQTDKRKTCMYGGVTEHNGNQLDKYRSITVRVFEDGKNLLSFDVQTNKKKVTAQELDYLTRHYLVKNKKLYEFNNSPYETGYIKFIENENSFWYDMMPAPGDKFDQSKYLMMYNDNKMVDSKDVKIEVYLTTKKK

His-SEB蛋白 [2] = target: T1, His-SEB蛋白; remark: listed apart in the source

B1: YG11-1抗体 (antibody, V domains shown)
VH: QVQLVESGGGVVQPGRSLRLSCAASGFSLSDHAVHWVRQAPGKGLEWVALISYDGSDKYYKDSVKGRFTISRDNPKNTLYLQMTSLKPEDTAVYYCARQGGNKNINYFFQYLDVWGQGTMVTVSS
VL: DIVMTQTPSSLSASVGDRVNISCRASQTISNHLNWYLQKPGKAPKLLIYDASSLESGVPSRFSGSGSGTDFTLTISSLQPEDFATYYCQQFINYPPTFGPGTKLEIKR
Work on B1 yielded a Kd (His-SEB蛋白 [1]) of 16.6 nM, a koff (His-SEB蛋白 [1]) of 0.0169 s⁻¹ and a kon (His-SEB蛋白 [1]) of 1.02e+06 M⁻¹ s⁻¹. For the same binder, the EC50 (His-SEB蛋白 [2]) was 0.013 µg/mL.
